Test results published in paper PMC10180351, “Modulating Substrate Specificity of Rhizobium sp. Histamine Dehydrogenase through Protein Engineering for Food Quality Applications” (Molecules, 2023).

T1: Rhizobium sp. Histamine Dehydrogenase (Rsp HDH) (Rhizobium sp. 4-9, UniProt Q60I59)
T1 construct: full length (693 aa native), synthetic E. coli-optimised gene in pET28a(+), C-terminal 6xHis tag kept; E. coli BL21 Gold (DE3); IMAC purified; homodimer with 6-S-Cys-FMN, [4Fe-4S], ADP
T1 sequence (Q60I59 1-693): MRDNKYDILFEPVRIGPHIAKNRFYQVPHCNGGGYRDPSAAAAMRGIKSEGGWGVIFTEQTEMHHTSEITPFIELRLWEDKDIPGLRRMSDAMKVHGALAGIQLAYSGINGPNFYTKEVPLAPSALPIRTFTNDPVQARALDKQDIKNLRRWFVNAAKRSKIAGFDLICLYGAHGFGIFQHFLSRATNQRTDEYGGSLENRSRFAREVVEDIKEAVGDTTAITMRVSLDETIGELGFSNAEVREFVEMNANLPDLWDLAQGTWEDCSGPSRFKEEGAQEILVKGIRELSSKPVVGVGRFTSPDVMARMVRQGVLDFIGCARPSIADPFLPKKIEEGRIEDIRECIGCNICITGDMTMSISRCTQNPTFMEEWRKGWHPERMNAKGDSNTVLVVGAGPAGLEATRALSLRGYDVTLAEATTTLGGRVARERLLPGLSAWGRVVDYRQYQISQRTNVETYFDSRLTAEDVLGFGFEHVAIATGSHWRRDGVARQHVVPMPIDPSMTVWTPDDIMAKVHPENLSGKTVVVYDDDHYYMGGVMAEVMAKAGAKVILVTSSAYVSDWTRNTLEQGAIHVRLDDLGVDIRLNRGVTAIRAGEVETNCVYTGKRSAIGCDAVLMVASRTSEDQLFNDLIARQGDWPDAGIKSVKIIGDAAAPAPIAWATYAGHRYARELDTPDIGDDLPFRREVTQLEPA


Assays:
[1] = biological target: T1, Rhizobium sp. Histamine Dehydrogenase (Rsp HDH); test: WST-8 / 1-methoxy PMS colorimetric initial rate, […] nm, substrate inhibition fit; format: biochemical; details: substrate inhibition by histamine itself; 1-methoxy PMS electron carrier; glycine buffer pH 9.0, 37 °C
Text: (§1) Histamine Dehydrogenase (Rsp HDH)

[2] = substrate: N=C(N)NCCCCN; test: purified protein; format: biochemical, Rhizobium sp. 4-9; details: 1-methoxy PMS electron carrier, glycine buffer pH 9.0, 37 °C
Text: as §1

[3] = substrate: NCCc1c[nH]cn1; test: purified protein; format: biochemical, Rhizobium sp. 4-9; details: 1-methoxy PMS electron carrier, glycine buffer pH 9.0, 37 °C
Text: as §1

Row | Molecule | Observed Ki [1] | Km [2] | Km [3]
1 | NCCc1c[nH]cn1 [histamine] | 2059.0 µM |  | 
2 | Rhizobium sp. Histamine Dehydrogenase (Rsp HDH) (Rhizobium sp. 4-9) (protein, full length (693 aa native), synthetic E. coli-optimised gene in pET28a(+), C-terminal 6xHis tag kept; E. coli BL21 Gold (DE3); IMAC purified; homodimer with 6-S-Cys-FMN, [4Fe-4S], ADP) MRDNKYDILFEPVRIGPHIAKNRFYQVPHCNGGGYRDPSAAAAMRGIKSEGGWGVIFTEQTEMHHTSEITPFIELRLWEDKDIPGLRRMSDAMKVHGALAGIQLAYSGINGPNFYTKEVPLAPSALPIRTFTNDPVQARALDKQDIKNLRRWFVNAAKRSKIAGFDLICLYGAHGFGIFQHFLSRATNQRTDEYGGSLENRSRFAREVVEDIKEAVGDTTAITMRVSLDETIGELGFSNAEVREFVEMNANLPDLWDLAQGTWEDCSGPSRFKEEGAQEILVKGIRELSSKPVVGVGRFTSPDVMARMVRQGVLDFIGCARPSIADPFLPKKIEEGRIEDIRECIGCNICITGDMTMSISRCTQNPTFMEEWRKGWHPERMNAKGDSNTVLVVGAGPAGLEATRALSLRGYDVTLAEATTTLGGRVARERLLPGLSAWGRVVDYRQYQISQRTNVETYFDSRLTAEDVLGFGFEHVAIATGSHWRRDGVARQHVVPMPIDPSMTVWTPDDIMAKVHPENLSGKTVVVYDDDHYYMGGVMAEVMAKAGAKVILVTSSAYVSDWTRNTLEQGAIHVRLDDLGVDIRLNRGVTAIRAGEVETNCVYTGKRSAIGCDAVLMVASRTSEDQLFNDLIARQGDWPDAGIKSVKIIGDAAAPAPIAWATYAGHRYARELDTPDIGDDLPFRREVTQLEPA |  | 130.1 µM | 38.24 µM
3 | Rhizobium sp. Histamine Dehydrogenase (Rsp HDH) (Rhizobium sp. 4-9; F72T) (protein, full length (693 aa native), synthetic E. coli-optimised gene in pET28a(+), C-terminal 6xHis tag kept; E. coli BL21 Gold (DE3); IMAC purified; homodimer with 6-S-Cys-FMN, [4Fe-4S], ADP) MRDNKYDILFEPVRIGPHIAKNRFYQVPHCNGGGYRDPSAAAAMRGIKSEGGWGVIFTEQTEMHHTSEITPTIELRLWEDKDIPGLRRMSDAMKVHGALAGIQLAYSGINGPNFYTKEVPLAPSALPIRTFTNDPVQARALDKQDIKNLRRWFVNAAKRSKIAGFDLICLYGAHGFGIFQHFLSRATNQRTDEYGGSLENRSRFAREVVEDIKEAVGDTTAITMRVSLDETIGELGFSNAEVREFVEMNANLPDLWDLAQGTWEDCSGPSRFKEEGAQEILVKGIRELSSKPVVGVGRFTSPDVMARMVRQGVLDFIGCARPSIADPFLPKKIEEGRIEDIRECIGCNICITGDMTMSISRCTQNPTFMEEWRKGWHPERMNAKGDSNTVLVVGAGPAGLEATRALSLRGYDVTLAEATTTLGGRVARERLLPGLSAWGRVVDYRQYQISQRTNVETYFDSRLTAEDVLGFGFEHVAIATGSHWRRDGVARQHVVPMPIDPSMTVWTPDDIMAKVHPENLSGKTVVVYDDDHYYMGGVMAEVMAKAGAKVILVTSSAYVSDWTRNTLEQGAIHVRLDDLGVDIRLNRGVTAIRAGEVETNCVYTGKRSAIGCDAVLMVASRTSEDQLFNDLIARQGDWPDAGIKSVKIIGDAAAPAPIAWATYAGHRYARELDTPDIGDDLPFRREVTQLEPA |  | 112.9 µM | 194.6 µM
4 | Rhizobium sp. Histamine Dehydrogenase (Rsp HDH) (Rhizobium sp. 4-9; N110V) (protein, full length (693 aa native), synthetic E. coli-optimised gene in pET28a(+), C-terminal 6xHis tag kept; E. coli BL21 Gold (DE3); IMAC purified; homodimer with 6-S-Cys-FMN, [4Fe-4S], ADP) MRDNKYDILFEPVRIGPHIAKNRFYQVPHCNGGGYRDPSAAAAMRGIKSEGGWGVIFTEQTEMHHTSEITPFIELRLWEDKDIPGLRRMSDAMKVHGALAGIQLAYSGIVGPNFYTKEVPLAPSALPIRTFTNDPVQARALDKQDIKNLRRWFVNAAKRSKIAGFDLICLYGAHGFGIFQHFLSRATNQRTDEYGGSLENRSRFAREVVEDIKEAVGDTTAITMRVSLDETIGELGFSNAEVREFVEMNANLPDLWDLAQGTWEDCSGPSRFKEEGAQEILVKGIRELSSKPVVGVGRFTSPDVMARMVRQGVLDFIGCARPSIADPFLPKKIEEGRIEDIRECIGCNICITGDMTMSISRCTQNPTFMEEWRKGWHPERMNAKGDSNTVLVVGAGPAGLEATRALSLRGYDVTLAEATTTLGGRVARERLLPGLSAWGRVVDYRQYQISQRTNVETYFDSRLTAEDVLGFGFEHVAIATGSHWRRDGVARQHVVPMPIDPSMTVWTPDDIMAKVHPENLSGKTVVVYDDDHYYMGGVMAEVMAKAGAKVILVTSSAYVSDWTRNTLEQGAIHVRLDDLGVDIRLNRGVTAIRAGEVETNCVYTGKRSAIGCDAVLMVASRTSEDQLFNDLIARQGDWPDAGIKSVKIIGDAAAPAPIAWATYAGHRYARELDTPDIGDDLPFRREVTQLEPA |  | 170.1 µM | 159.5 µM
